Laboratory results from patent publication US20080248994A1 (GOVERNMENT OF THE UNITED STATES OF AMERICA AS REPRESENTED …, published 2008).

T1: hyperphosphorylated pRb (endogenous, proliferating C2C12 myoblasts, GM) (mouse, UniProt P13405 2-921, hyperphosphorylated (sites not given))
T1 construct: Endogenous protein in extracts of cells kept in growth medium
T1 sequence (looked up): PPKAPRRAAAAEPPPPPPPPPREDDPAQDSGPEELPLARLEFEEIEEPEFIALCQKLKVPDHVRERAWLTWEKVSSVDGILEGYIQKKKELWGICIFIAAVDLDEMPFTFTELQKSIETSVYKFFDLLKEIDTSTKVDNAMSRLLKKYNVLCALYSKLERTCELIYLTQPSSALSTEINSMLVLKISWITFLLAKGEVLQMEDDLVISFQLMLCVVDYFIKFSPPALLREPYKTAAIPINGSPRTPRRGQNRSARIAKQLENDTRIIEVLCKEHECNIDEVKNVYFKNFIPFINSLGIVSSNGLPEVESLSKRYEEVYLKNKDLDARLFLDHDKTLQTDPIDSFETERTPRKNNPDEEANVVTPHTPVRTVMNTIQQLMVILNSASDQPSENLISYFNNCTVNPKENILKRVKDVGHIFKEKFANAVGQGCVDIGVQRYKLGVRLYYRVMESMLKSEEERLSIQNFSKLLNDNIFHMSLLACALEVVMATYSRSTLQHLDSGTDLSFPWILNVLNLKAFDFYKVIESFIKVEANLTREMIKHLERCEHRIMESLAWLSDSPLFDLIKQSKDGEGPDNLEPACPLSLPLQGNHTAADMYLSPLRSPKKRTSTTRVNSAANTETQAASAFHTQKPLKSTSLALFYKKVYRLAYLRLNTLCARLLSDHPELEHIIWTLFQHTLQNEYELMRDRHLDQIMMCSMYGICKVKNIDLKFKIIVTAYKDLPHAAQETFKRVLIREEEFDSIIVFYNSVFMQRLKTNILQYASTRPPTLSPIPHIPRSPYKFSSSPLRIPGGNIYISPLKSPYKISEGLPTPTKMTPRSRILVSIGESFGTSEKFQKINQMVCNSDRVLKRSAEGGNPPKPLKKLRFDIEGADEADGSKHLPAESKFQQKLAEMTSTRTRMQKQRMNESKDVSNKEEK

T2: hypophosphorylated pRb (endogenous, differentiated C2C12 myotubes, DM) (mouse, UniProt P13405 2-921, hypophosphorylated (sites not given))
T2 construct: Endogenous protein in extracts of cells kept in differentiation medium for 36 hr
T2 sequence (looked up): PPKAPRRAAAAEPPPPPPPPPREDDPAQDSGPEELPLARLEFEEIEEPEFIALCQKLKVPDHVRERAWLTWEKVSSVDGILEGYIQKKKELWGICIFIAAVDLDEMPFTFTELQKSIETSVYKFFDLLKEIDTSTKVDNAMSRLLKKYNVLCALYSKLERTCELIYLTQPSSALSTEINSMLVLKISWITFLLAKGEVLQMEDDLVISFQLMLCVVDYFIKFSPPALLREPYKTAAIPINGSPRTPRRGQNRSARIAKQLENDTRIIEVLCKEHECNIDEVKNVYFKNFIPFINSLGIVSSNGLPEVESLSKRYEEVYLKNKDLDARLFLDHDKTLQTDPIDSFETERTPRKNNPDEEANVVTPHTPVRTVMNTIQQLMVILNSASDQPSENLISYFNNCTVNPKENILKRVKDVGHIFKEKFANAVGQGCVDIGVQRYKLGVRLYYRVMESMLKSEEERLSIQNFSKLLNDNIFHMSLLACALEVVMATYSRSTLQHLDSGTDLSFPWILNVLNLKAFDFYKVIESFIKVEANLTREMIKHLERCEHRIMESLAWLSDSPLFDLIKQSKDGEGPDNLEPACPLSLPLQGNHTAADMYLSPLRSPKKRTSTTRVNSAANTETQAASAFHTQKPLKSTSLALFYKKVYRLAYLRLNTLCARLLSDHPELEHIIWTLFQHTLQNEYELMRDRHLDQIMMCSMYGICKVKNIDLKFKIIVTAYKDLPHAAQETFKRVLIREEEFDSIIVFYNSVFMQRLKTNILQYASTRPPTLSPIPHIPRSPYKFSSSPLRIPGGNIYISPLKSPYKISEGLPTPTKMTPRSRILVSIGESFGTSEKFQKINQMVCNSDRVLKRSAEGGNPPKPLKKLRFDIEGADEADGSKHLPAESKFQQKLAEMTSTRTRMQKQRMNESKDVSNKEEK

T3: GST-pRb wt (UniProt P06400 379-928, limits assumed)
T3 construct: Expressed in bacteria; the whole protein is named here; also called GST-Rb (WT); GST-RB (WT); not shown: GST tag
T3 sequence (looked up): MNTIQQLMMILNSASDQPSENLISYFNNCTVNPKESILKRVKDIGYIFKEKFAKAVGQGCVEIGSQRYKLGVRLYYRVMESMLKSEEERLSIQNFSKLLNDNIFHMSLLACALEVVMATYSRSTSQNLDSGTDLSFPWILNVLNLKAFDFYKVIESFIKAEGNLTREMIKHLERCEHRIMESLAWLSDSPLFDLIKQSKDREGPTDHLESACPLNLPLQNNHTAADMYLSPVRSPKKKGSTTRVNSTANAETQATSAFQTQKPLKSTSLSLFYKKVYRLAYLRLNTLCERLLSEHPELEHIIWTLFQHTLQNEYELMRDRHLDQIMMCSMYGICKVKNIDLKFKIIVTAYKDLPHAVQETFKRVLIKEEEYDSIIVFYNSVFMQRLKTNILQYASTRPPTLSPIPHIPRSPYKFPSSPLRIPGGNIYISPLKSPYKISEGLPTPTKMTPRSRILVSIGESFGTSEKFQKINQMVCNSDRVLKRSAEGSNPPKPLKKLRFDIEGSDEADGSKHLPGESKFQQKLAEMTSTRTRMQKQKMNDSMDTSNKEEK


Key:
[1] = biological target: T1, hyperphosphorylated pRb (endogenous, …); test: co-immunoprecipitation from C2C12 myoblast extracts, Western blot
[2] = biological target: T2, hypophosphorylated pRb (endogenous, …); test: co-immunoprecipitation from C2C12 myotube extracts, Western blot
GST-pRb wt = biological target: T3, GST-pRb wt; test: GST pull-down from extracts of transfected pRb-/- 3T3 cells, Western blot (data not shown)
Procedure: The association with MyoD was monitored at different stages of myogenic conversion (GM and DM for 36 hours) by Western blot using anti-MyoD antibodies. In FIG. 9B, pRb−/−p53±double knock out derived 3T3 cells were transfected with Flag-HDAC1 and myc-MyoD. Nuclear extracts were prepared and subsequently incubated with increasing amounts of either GST-pRbwt or GST-pRbN757F. […] The HDAC1 present in the supernatant of the GST pull-down was immunoprecipitated with anti-Flag conjugated beads, and the associated MyoD was detected by Western blot by using anti-myc antibodies. In FIG. 9C (upper panel), a graph illustrates the ability to activate MCK-luc reporter by MyoD transiently expressed in pRb−/−p53±3T3 fibroblasts, evaluated with or without the co-expression of pRb wt or pRb N757F. In the lower panel of […], levels of endogenous MHC, p21, myogenin, tubulin, and ectopically produced pRb were evaluated by Western blot in pRb−/−p53±3T3 fibroblasts after transient expression of MyoD alone or in conjunction with either pRb wt or pRb N757F. FIG. 9D is a graph illustrating the ability to activate the MCK-luc reporter by MyoD and MEF2C alone, or in combination with E12, in pRb−/−p53±double knock out derived 3T3 cells was evaluated with or without the co-expression of pRb wt or pRb N757F. […] Transcriptional activation was measured by luciferase assay. […]

| Binder | binding result [1] | binding result [2] | binding result (GST-pRb wt) |
| --- | --- | --- | --- |
| MyoD (endogenous, in extracts of C2C12 cells; also endogenous MyoD of MD3 and CC42 cells) (other, mouse, UniProt P10085 1-318, looked up, Transcription factor (bHLH)) MELLSPPLRDIDLTGPDGSLCSFETADDFYDDPCFDSPDLRFFEDLDPRLVHMGALLKPEEHAHFPTAVHPGPGAREDEHVRAPSGHHQAGRCLLWACKACKRKTTNADRRKAATMRERRRLSKVNEAFETLKRCTSSNPNQRLPKVEILRNAIRYIEGLQALLRDQDAAPPGAAAFYAPGPLPPGRGSEHYSGDSDASSPRSNCSDGMMDYSGPPSGPRRQNGYDTAYYSEAARESRPGKSAAVSSLDCLSSIVERISTDSPAAPALLLADAPPESPPGPPEGASLSDTEQGTQTPSPDAAPQCPAGSNPNAIYQVL | no binding | no binding | – |
| myc-MyoD (expressed from a transfected vector in pRb-/- 3T3 cells) (other, UniProt P10085 1-318, looked up, also called myc-tagged MyoD; not shown: myc tag) MELLSPPLRDIDLTGPDGSLCSFETADDFYDDPCFDSPDLRFFEDLDPRLVHMGALLKPEEHAHFPTAVHPGPGAREDEHVRAPSGHHQAGRCLLWACKACKRKTTNADRRKAATMRERRRLSKVNEAFETLKRCTSSNPNQRLPKVEILRNAIRYIEGLQALLRDQDAAPPGAAAFYAPGPLPPGRGSEHYSGDSDASSPRSNCSDGMMDYSGPPSGPRRQNGYDTAYYSEAARESRPGKSAAVSSLDCLSSIVERISTDSPAAPALLLADAPPESPPGPPEGASLSDTEQGTQTPSPDAAPQCPAGSNPNAIYQVL | – | – | no binding |
